This experiment deals with ACE2‐Fc produced in glycoengineered ΔXT/FT Nicotiana benthamiana (human) (UniProt Q9BYF1). The experiment is described as follows: SEC-MALS; isolated dimer fraction of ACE2‐Fc; native molecular mass by MALS. In general terms: Size exclusion chromatography separates by hydrodynamic size, large species first.

Broadly, the stoichiometry N is the number of molecules, sites or subunits per partner or assembly. “ACE2‐Fc produced in glycoengineered ΔXT/FT Nicotiana benthamiana (from UniProt Q9BYF1 18-615) (Fc fusion)” registered a stoichiometry N of 2.
